From publication PMC4759655 (Immunity, 2016)

Molecular target: the molecule itself
Test: cross-linking

B1: CD45 protein tyrosine phosphatase (receptor, UniProt P06800 26-1293, looked up)
chain: QTPTPSDELSTTENALLLPQSDPLPARTTESTPPSISERGNGSSETTYHPGVLSTLLPHLSPQPDSQTPSAGGADTQTFSSQADNPTLTPAPGGGTDPPGVPGERTVPGTIPADTAFPVDTPSLARNSSAASPTHTSNVSTTDISSGASLTTLTPSTLGLASTDPPSTTIATTTKQTCAAMFGNITVNYTYESSNQTFKADLKDVQNAKCGNEDCENVLNNLEECSQIKNISVSNDSCAPATTIDLYVPPGTDKFSLHDCTPKEKANTSICLEWKTKNLDFRKCNSDNISYVLHCEPENNTKCIRRNTFIPERCQLDNLRAQTNYTCVAEILYRGVKLVKNVINVQTDLGIPETPKPSCGDPAARKTLVSWPEPVSKPESASKPHGYVLCYKNNSEKCKSLPNNVTSFEVESLKPYKYYEVSLLAYVNGKIQRNGTAEKCNFHTKADRPDKVNGMKTSRPTDNSINVTCGPPYETNGPKTFYILVVRSGGSFVTKYNKTNCQFYVDNLYYSTDYEFLVSFHNGVYEGDSVIRNESTNFNAKALIIFLVFLIIVTSIALLVVLYKIYDLRKKRSSNLDEQQELVERDDEKQLMDVEPIHSDILLETYKRKIADEGRLFLAEFQSIPRVFSKFPIKDARKPHNQNKNRYVDILPYDYNRVELSEINGDAGSTYINASYIDGFKEPRKYIAAQGPRDETVDDFWRMIWEQKATVIVMVTRCEEGNRNKCAEYWPSMEEGTRAFKDIVVTINDHKRCPDYIIQKLNVAHKKEKATGREVTHIQFTSWPDHGVPEDPHLLLKLRRRVNAFSNFFSGPIVVHCSAGVGRTGTYIGIDAMLEGLEAEGKVDVYGYVVKLRRQRCLMVQVEAQYILIHQALVEYNQFGETEVNLSELHSCLHNMKKRDPPSDPSPLEAEYQRLPSYRSWRTQHIGNQEENKKKNRNSNVVPYDFNRVPLKHELEMSKESEPESDESSDDDSDSEETSKYINASFVMSYWKPEMMIAAQGPLKETIGDFWQMIFQRKVKVIVMLTELVNGDQEVCAQYWGEGKQTYGDMEVEMKDTNRASAYTLRTFELRHSKRKEPRTVYQYQCTTWKGEELPAEPKDLVSMIQDLKQKLPKASPEGMKYHKHASILVHCRDGSQQTGLFCALFNLLESAETEDVVDVFQVVKSLRKARPGVVCSYEQYQFLYDIIASIYPAQNGQVKKTNSQDKIEFHNEVDGGKQDANCVRPDGPLNKAQEDSRGVGTPEPTNSAEEPEHAANGSASPAPTQSS
- stoichiometry N: 2
